Data on 7 molecules can be found in patent US20230212549A1 (3B PHARMACEUTICALS, published 2023).

Numbered stars: 1 amine (or outer) side, 2 acyl side, 3 side chain; on linkers, the order of the positions; unused ones are H or OH. Bridge positions count the residues as written; N and C are the ends. Square brackets hold non-standard residues; d marks the D form. Primed or numbered codes have the meaning given here. * marks the point of attachment. Ttds″ = 1,13-diamino-4,7,10-trioxatridecan-succinamic acid spacer, O=C(CCC(=O)[*:2])NCCCOCCOCCOCCCN[*:1]; Ttds = 1,13-diamino-4,7,10-trioxatridecan-succinamic acid, O=C(CCC(=O)[*:2])NCCCOCCOCCOCCCN[*:1]; Ttds(4) = spacer between chelator and peptide, O=C(CCC(=O)[*:2])NCCCOCCOCCOCCCN[*:1]; DOTA = O=C(O)CN1CCN(CC(=O)O)CCN(CC(=O)*)CCN(CC(=O)O)CC1; mXylylene = c1cc(C[*:1])cc(C[*:2])c1; NMeF = CN[C@@H](Cc1ccccc1)C(=O)O; 4Amb = NCc1ccc(C(=O)O)cc1; Nle = CCCC[C@H](N)C(=O)O; Hexanoyl = CCCCCC(=O)*

To fix the notation:
B1: DOTA-Ttds-Nle-[Cys(3MeBn)-Pro-Pro-Thr-Glu-Phe-Cys]-Asp-NH2 (peptide)
peptide: {DOTA}-[Ttds][Nle]CPPTEFCD-NH2
modifications: linker 3-9 via mXylylene
SMILES: CCCC[C@H](NC(=O)CCC(=O)NCCCOCCOCCOCCCNC(=O)CN1CCN(CC(=O)O)CCN(CC(=O)O)CCN(CC(=O)O)CC1)C(=O)N[C@H]1CSCc2cccc(c2)CSC[C@@H](C(=O)N[C@@H](CC(=O)O)C(N)=O)NC(=O)[C@H](Cc2ccccc2)NC(=O)[C@H](CCC(=O)O)NC(=O)[C@H]([C@@H](C)O)NC(=O)[C@@H]2CCCN2C(=O)[C@@H]2CCCN2C1=O
notes: also called 3BP-3320
B2: Hex-[Cys(tMeBn(DOTA-AET))-Pro-Pro-Thr-Gln-Phe-Cys]-Asp-NH2 (peptide)
peptide: Hexanoyl-CPPTQFCD-NH2
modifications: linker 1-7 via tMeBn(DOTA-AET)
notes: also called 3BP-3426
B3: Hex-[Cys(3MeBn)-Pro-Pro-Thr-Gln-Phe-Cys]-Asp-NH2 (peptide)
peptide: Hexanoyl-CPPTQFCD-NH2
modifications: linker 1-7 via mXylylene
SMILES: CCCCCC(=O)N[C@H]1CSCc2cccc(c2)CSC[C@@H](C(=O)N[C@@H](CC(=O)O)C(N)=O)NC(=O)[C@H](Cc2ccccc2)NC(=O)[C@H](CCC(N)=O)NC(=O)[C@H]([C@@H](C)O)NC(=O)[C@@H]2CCCN2C(=O)[C@@H]2CCCN2C1=O
B4: DOTA-Ttds-Nle-[Cys(3MeBn)-Pro-Pro-Thr-Glu-Phe-Cys]-Asp-His-Phe-Arg-Asp-NH2 (peptide)
peptide: {DOTA}-[Ttds(4)][Nle]CPPTEFCDHFRD-NH2
modifications: linker 3-9 via mXylylene
SMILES: CCCC[C@H](NC(=O)CCC(=O)NCCCOCCOCCOCCCNC(=O)CN1CCN(CC(=O)O)CCN(CC(=O)O)CCN(CC(=O)O)CC1)C(=O)N[C@H]1CSCc2cccc(c2)CSC[C@@H](C(=O)N[C@@H](CC(=O)O)C(=O)N[C@@H](Cc2c[nH]cn2)C(=O)N[C@@H](Cc2ccccc2)C(=O)N[C@@H](CCCNC(=N)N)C(=O)N[C@@H](CC(=O)O)C(N)=O)NC(=O)[C@H](Cc2ccccc2)NC(=O)[C@H](CCC(=O)O)NC(=O)[C@H]([C@@H](C)O)NC(=O)[C@@H]2CCCN2C(=O)[C@@H]2CCCN2C1=O
B5: Hex-[Cys(3MeBn)-Pro-Pro-Thr-Glu-Phe-Cys]-Asp-His-Nmf-Arg-Ttds-Lys(DOTA)-NH2 (peptide)
peptide: Hexanoyl-CPPTEFCDH[NMeF]R[Ttds″]K(DOTA)-NH2
modifications: linker 1-7 via mXylylene
SMILES: CCCCCC(=O)N[C@H]1CSCc2cccc(c2)CSC[C@@H](C(=O)N[C@@H](CC(=O)O)C(=O)N[C@@H](Cc2c[nH]cn2)C(=O)N(C)[C@@H](Cc2ccccc2)C(=O)N[C@@H](CCCNC(=N)N)C(=O)NCCCOCCOCCOCCCNC(=O)CCC(=O)N[C@@H](CCCCNC(=O)CN2CCN(CC(=O)O)CCN(CC(=O)O)CCN(CC(=O)O)CC2)C(N)=O)NC(=O)[C@H](Cc2ccccc2)NC(=O)[C@H](CCC(=O)O)NC(=O)[C@H]([C@@H](C)O)NC(=O)[C@@H]2CCCN2C(=O)[C@@H]2CCCN2C1=O
notes: also called 3BP-3275
B6: DOTA-Ttds-Nle-[Cys(3MeBn)-Pro-Pro-Thr-Glu-Phe-Cys]-Asp-Pamb-Arg-NH2 (peptide)
peptide: {DOTA}-[Ttds][Nle]CPPTEFCD[4Amb]R-NH2
modifications: linker 3-9 via mXylylene
SMILES: CCCC[C@H](NC(=O)CCC(=O)NCCCOCCOCCOCCCNC(=O)CN1CCN(CC(=O)O)CCN(CC(=O)O)CCN(CC(=O)O)CC1)C(=O)N[C@H]1CSCc2cccc(c2)CSC[C@@H](C(=O)N[C@@H](CC(=O)O)C(=O)NCc2ccc(C(=O)N[C@@H](CCCNC(=N)N)C(N)=O)cc2)NC(=O)[C@H](Cc2ccccc2)NC(=O)[C@H](CCC(=O)O)NC(=O)[C@H]([C@@H](C)O)NC(=O)[C@@H]2CCCN2C(=O)[C@@H]2CCCN2C1=O
notes: also called 3BP-3321
B7: Hex-[Cys(3MeBn)-Pro-Pro-Thr-Glu-Phe-Cys]-Asp-His-Phe-Arg-Asp-Ttds-Lys(DOTA)-NH2 (peptide)
peptide: Hexanoyl-CPPTEFCDHFRD[Ttds″]K(DOTA)-NH2
modifications: linker 1-7 via mXylylene
SMILES: CCCCCC(=O)N[C@H]1CSCc2cccc(c2)CSC[C@@H](C(=O)N[C@@H](CC(=O)O)C(=O)N[C@@H](Cc2c[nH]cn2)C(=O)N[C@@H](Cc2ccccc2)C(=O)N[C@@H](CCCNC(=N)N)C(=O)N[C@@H](CC(=O)O)C(=O)NCCCOCCOCCOCCCNC(=O)CCC(=O)N[C@@H](CCCCNC(=O)CN2CCN(CC(=O)O)CCN(CC(=O)O)CCN(CC(=O)O)CC2)C(N)=O)NC(=O)[C@H](Cc2ccccc2)NC(=O)[C@H](CCC(=O)O)NC(=O)[C@H]([C@@H](C)O)NC(=O)[C@@H]2CCCN2C(=O)[C@@H]2CCCN2C1=O

T1 sequence (Q12884 26-760 limits assumed): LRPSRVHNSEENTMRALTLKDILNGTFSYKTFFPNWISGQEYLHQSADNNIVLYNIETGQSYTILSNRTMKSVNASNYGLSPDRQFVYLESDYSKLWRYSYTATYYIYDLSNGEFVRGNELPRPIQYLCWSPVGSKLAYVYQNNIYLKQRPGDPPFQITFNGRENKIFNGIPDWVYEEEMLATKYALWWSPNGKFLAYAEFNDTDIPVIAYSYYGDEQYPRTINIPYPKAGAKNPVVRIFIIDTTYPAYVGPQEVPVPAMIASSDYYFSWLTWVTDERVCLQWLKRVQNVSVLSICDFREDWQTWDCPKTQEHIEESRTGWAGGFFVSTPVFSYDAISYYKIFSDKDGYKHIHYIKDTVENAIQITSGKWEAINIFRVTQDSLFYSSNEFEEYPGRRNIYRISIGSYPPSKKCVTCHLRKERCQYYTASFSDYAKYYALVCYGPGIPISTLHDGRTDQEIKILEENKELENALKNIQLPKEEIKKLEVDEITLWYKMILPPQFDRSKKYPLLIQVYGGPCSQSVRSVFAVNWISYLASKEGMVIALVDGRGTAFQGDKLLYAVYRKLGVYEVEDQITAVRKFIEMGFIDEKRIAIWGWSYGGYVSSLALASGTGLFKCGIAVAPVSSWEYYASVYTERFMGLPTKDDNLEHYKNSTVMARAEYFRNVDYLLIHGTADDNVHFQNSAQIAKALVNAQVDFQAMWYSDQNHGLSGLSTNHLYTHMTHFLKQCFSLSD

One assay has as its target T1, Recombinant human FAP (R&D systems, #3715-SE) (human, UniProt Q12884 26-760).
T1 construct: bought; in SPR captured on immobilized anti-FAP antibody MAB3715; also called rhFAP; human recombinant FAP
Kind of assay: SPR (Biacore T200), FAP captured on anti-FAP antibody, single cycle kinetics.
With B1, the “pKD Category” value is over 8 pKD.

Turning to B2, the “pKD Category” value was over 8 pKD.

Regarding B3, the “pKD Category” value was over 8 pKD.

Consider B4, for which the “pKD Category” value was over 8 pKD.

As for B5, the “pKD Category” value is over 8 pKD.

Consider B6, for which the “pKD Category” value is over 8 pKD.

For the molecule B7, the “pKD Category” value is over 8 pKD.

The next assay has as its target T2, recombinant human PREP (R&D systems, #4308-SE) (human, UniProt P48147 1-710).
T2 sequence: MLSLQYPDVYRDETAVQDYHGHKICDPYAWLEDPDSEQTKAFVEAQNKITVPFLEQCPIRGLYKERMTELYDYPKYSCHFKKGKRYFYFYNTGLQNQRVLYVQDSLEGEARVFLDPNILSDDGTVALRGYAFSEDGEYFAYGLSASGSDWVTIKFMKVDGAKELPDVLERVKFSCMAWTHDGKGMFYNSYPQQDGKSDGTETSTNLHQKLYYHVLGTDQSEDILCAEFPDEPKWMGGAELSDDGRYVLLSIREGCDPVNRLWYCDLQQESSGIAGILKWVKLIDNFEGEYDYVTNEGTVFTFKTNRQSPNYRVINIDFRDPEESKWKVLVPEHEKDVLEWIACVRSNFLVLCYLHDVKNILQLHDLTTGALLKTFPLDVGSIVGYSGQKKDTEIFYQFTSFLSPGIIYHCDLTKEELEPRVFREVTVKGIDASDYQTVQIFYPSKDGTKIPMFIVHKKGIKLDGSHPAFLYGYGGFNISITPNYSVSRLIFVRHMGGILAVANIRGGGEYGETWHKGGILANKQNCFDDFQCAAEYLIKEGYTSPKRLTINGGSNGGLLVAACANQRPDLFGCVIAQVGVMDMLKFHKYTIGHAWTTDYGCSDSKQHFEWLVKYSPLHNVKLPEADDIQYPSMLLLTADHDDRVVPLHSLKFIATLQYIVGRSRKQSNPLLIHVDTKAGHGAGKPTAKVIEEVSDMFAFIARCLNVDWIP
Kind of assay: cell-based or functional assay.
Turning to B1, the “pIC50 (PREP)” value is under 6 pIC50.

For B2, the “pIC50 (PREP)” value was under 6 pIC50.

Regarding B3, the “pIC50 (PREP)” value is under 6 pIC50.

In the case of B4, the “pIC50 (PREP)” value was under 6 pIC50.

Consider B5, for which the “pIC50 (PREP)” value was under 6 pIC50.

Consider B6, for which the “pIC50 (PREP)” value is under 6 pIC50.

For B7, the “pIC50 (PREP)” value is under 6 pIC50.

For the next assay, the target named is Recombinant human DPP4 (R&D systems, #9168-SE) (human, UniProt P27487 29-766). Kind of assay: cell-based or functional assay.
Chain of Recombinant human DPP4 (R&D systems, #9168-SE) (P27487 29-766 limits assumed): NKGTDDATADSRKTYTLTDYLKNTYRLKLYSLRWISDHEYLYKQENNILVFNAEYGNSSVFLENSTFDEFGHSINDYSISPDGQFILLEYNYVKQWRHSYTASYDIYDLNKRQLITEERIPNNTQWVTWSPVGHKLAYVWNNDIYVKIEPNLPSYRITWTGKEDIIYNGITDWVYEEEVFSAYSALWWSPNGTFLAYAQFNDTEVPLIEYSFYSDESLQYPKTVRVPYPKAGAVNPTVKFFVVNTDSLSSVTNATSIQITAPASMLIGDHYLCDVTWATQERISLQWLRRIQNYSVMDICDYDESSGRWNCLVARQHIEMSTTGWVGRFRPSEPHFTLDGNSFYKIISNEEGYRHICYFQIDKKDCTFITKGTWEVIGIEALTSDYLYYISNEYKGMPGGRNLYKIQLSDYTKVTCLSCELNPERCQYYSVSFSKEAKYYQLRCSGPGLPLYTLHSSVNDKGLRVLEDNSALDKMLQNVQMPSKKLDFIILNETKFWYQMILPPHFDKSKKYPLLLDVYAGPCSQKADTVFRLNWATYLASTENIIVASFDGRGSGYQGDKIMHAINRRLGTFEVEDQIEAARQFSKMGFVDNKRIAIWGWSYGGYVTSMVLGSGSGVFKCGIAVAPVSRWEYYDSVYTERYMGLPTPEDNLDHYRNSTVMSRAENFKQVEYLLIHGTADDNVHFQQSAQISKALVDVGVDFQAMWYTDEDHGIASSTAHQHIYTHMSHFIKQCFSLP
Take B1: the “pIC50 (DPP4)” value was under 6 pIC50.

As for B2, the “pIC50 (DPP4)” value was under 6 pIC50.

Consider B3, for which the “pIC50 (DPP4)” value is under 6 pIC50.

Consider B4, for which the “pIC50 (DPP4)” value is under 6 pIC50.

B5: the “pIC50 (DPP4)” value is under 6 pIC50.

With B6, the “pIC50 (DPP4)” value was under 6 pIC50.

B7: the “pIC50 (DPP4)” value is under 6 pIC50.
